According to paper PMC6309729 (Biochemistry, 2011):
Positions count from the first letter of the chain named. Numbers in names are those of the source. Read-outs that look alike come from different tables or passages of the source.

T1: cpSRP54 (chloroplast SRP54), wildtype (Arabidopsis thaliana, UniProt P37107 76-564)
T1 sequence (looked up): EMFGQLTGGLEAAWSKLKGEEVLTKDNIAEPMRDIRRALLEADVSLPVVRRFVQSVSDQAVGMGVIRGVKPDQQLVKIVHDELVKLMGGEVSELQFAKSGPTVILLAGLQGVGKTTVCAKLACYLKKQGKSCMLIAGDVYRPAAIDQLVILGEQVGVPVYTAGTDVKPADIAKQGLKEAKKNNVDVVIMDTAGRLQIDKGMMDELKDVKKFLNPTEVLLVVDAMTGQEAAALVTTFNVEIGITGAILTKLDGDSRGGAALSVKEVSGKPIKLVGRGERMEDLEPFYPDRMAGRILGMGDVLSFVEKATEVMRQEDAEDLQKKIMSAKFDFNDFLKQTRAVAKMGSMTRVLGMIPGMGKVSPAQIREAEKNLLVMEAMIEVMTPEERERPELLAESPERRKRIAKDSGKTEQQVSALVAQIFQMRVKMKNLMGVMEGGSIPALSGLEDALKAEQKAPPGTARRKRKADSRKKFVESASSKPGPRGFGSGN

B1: cpFtsY (chloroplast SRP receptor), wildtype (natural protein, UniProt O80842 41-366, looked up)
chain: CSAGPSGFFTRLGRLIKEKAKSDVEKVFSGFSKTRENLAVIDELLLFWNLAETDRVLDELEEALLVSDFGPKITVRIVERLREDIMSGKLKSGSEIKDALKESVLEMLAKKNSKTELQLGFRKPAVIMIVGVNGGGKTTSLGKLAHRLKNEGTKVLMAAGDTFRAAASDQLEIWAERTGCEIVVAEGDKAKAATVLSKAVKRGKEEGYDVVLCDTSGRLHTNYSLMEELIACKKAVGKIVSGAPNEILLVLDGNTGLNMLPQAREFNEVVGITGLILTKLDGSARGGCVVSVVEELGIPVKFIGVGEAVEDLQPFDPEAFVNAIFS
B2: cpFtsY(A169L) (natural protein)
chain: B1 chain with A167L
modifications: GTP/GMPPNP-Mg2+ state. Paper numbering + 38 = precursor (motif D163-x-F165-R166-A167-A168-A169), anchored on the named residues
B3: cpFtsY(A169W) (natural protein)
chain: B1 chain with A167W
modifications: GTP/GMPPNP-Mg2+ state. Paper numbering + 38 = precursor
B4: cpSRP54(A143L) (natural protein)
chain: MFGQLTGGLEAAWSKLKGEEVLTKDNIAEPMRDIRRALLEADVSLPVVRRFVQSVSDQAVGMGVIRGVKPDQQLVKIVHDELVKLMGGEVSELQFAKSGPTVILLAGLQGVGKTTVCAKLACYLKKQGKSCMLIAGDVYRPALIDQLVILGEQVGVPVYTAGTDVKPADIAKQGLKEAKKNNVDVVIMDTAGRLQIDKGMMDELKDVKKFLNPTEVLLVVDAMTGQEAAALVTTFNVEIGITGAILTKLDGDSRGGAALSVKEVSGKPIKLVGRGERMEDLEPFYPDRMAGRILGMGDVLSFVEKATEVMRQEDAEDLQKKIMSAKFDFNDFLKQTRAVAKMGSMTRVLGMIPGMGKVSPAQIREAEKNLLVMEAMIEVMTPEERERPELLAESPERRKRIAKDSGKTEQQVSALVAQIFQMRVKMKNLMGVMEGGSIPALSGLEDALKAEQKAPPGTARRKRKADSRKKFVESASSKPGPRGFGSGN
modifications: GTP/GMPPNP-Mg2+ state. Paper numbering + 76 = precursor (Met77 = 1, taken as the NdeI start)
B5: cpSRP54(A143W) (natural protein)
chain: B4 chain with L143W
modifications: GTP/GMPPNP-Mg2+ state. Paper numbering + 76 = precursor

Assays:
[1] = target: T1, cpSRP54 (chloroplast SRP54), wildtype; experiment: cell-based or functional assay
[2] = target: T1, cpSRP54 (chloroplast SRP54), wildtype; experiment: GTPase inhibition assay
[3] = target: T1, cpSRP54 (chloroplast SRP54), wildtype; experiment: GTPase inhibition assay; remark: listed apart in the source
[4] = target: B1; experiment: GTPase inhibition assay
[5] = target: B1; experiment: cell-based or functional assay
[6] = target: B1; experiment: GTPase inhibition assay; remark: listed apart in the source

Binder	kcat/Km of the reciprocally stimulated GTPase reaction [1]	Ki [2]	Ki [3]	Ki [4]	kcat/Km of the reciprocally stimulated GTPase reaction [5]	Ki [6]
B1	300000 M⁻¹ s⁻¹	–	–	–	–	–
B2	517 M⁻¹ s⁻¹	> 40 µM	–	–	–	–
B3	467 M⁻¹ s⁻¹	> 40 µM	> 50 µM	–	–	–
B4	–	–	–	> 40 µM	200 M⁻¹ s⁻¹	–
B5	–	–	–	> 40 µM	617 M⁻¹ s⁻¹	> 50 µM
